We go through 1 molecule from patent publication EP2585123B1 (Planton GmbH, dated 2014).

Ends that are not written are not given here.

This assay has as its target collagen scaffold (bovine collagen type I) (bovine, UniProt P02453 162-1217; P02465 80-1117). Nature of the assay: cell-based or functional assay.

collagen scaffold (bovine collagen type I), sequence (P02453 162-1217, chain 1 of 2): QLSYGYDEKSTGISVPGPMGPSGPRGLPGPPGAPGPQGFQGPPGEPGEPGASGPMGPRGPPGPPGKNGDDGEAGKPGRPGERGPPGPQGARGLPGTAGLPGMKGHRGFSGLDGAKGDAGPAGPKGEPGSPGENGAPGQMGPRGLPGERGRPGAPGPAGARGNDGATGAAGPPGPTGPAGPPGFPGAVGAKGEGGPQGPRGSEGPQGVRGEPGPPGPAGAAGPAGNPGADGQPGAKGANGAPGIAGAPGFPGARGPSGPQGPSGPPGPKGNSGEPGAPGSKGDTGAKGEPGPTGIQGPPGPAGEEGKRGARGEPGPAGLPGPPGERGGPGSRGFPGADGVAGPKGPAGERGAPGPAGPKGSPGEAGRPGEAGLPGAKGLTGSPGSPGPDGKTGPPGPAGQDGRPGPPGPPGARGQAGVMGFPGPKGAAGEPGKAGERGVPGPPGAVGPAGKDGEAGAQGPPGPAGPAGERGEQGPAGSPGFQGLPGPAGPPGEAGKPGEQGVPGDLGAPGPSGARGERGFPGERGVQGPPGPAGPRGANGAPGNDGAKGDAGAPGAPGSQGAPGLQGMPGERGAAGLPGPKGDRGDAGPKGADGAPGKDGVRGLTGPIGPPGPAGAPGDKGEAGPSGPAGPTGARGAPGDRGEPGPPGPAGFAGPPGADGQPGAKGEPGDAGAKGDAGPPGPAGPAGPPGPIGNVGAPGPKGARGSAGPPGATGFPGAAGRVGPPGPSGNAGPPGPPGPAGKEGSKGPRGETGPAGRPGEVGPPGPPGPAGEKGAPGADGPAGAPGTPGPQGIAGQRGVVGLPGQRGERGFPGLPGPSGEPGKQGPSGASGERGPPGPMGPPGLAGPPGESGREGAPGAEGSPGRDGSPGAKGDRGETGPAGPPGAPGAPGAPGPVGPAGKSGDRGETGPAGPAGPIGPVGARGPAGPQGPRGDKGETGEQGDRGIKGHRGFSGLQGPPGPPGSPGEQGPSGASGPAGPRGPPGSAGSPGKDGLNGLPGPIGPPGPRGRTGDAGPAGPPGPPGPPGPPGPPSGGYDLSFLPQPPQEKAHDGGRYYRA
collagen scaffold (bovine collagen type I), sequence (P02465 80-1117, chain 2 of 2): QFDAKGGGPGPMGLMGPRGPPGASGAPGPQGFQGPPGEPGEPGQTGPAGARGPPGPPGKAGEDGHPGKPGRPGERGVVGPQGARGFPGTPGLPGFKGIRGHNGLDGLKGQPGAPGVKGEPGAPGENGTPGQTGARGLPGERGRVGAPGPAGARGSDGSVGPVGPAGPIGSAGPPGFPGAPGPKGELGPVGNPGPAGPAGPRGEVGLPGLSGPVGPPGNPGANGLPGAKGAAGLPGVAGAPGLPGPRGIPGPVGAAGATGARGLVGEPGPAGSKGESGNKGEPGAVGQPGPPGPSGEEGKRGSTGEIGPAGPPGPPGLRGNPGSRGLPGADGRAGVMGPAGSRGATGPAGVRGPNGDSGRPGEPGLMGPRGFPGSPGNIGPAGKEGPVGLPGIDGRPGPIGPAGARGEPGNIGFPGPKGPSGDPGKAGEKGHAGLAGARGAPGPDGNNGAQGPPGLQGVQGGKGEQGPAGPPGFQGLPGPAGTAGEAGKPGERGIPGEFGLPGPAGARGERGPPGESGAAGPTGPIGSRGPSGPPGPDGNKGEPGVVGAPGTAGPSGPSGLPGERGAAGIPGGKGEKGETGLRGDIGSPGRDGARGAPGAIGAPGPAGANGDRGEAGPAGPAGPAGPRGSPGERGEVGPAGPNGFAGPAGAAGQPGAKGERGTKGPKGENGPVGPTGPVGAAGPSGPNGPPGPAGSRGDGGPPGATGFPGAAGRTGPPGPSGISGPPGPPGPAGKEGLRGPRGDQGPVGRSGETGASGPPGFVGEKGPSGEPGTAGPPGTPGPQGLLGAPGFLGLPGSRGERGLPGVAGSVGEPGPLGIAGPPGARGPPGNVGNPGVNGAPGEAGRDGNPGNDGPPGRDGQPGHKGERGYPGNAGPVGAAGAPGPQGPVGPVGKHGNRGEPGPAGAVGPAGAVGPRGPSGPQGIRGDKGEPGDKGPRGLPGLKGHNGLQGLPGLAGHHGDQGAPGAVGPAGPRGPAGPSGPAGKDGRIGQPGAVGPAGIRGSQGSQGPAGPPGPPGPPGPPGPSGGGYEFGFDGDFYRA

Take GIGDPVTCLKSGAICHPVFCPRRYKQIGTCGLPGTKCCKKP (ends and bridges not checked; cysteine pairing not given here) [human β-defensin-2]: the “hBD2 released by the collagen scaffold (agar diffusion assay, zone of inhibition, 10 µg hβD2)” value turned out to be 40%; the “hBD2 retarded by the collagen scaffold (agar diffusion assay, zone of inhibition, 10 µg hβD2)” value amounted to 60%; the “killing of the bacteria, collagen scaffold treated with 5 µg HAS, 4 µg hβD2, microdilution assay” value was 100%; the “killing rate, collagen scaffold treated with 5 µg BSA, 4 µg hβD2, microdilution assay” value turned out to be 98%. Further, the “killing rate, collagen scaffold without gelatine (unblocked), 4 µg hβD2, microdilution assay” value was 86% and the “killing, collagen scaffold pre-treated with 10 µl of a 0.1% gelatine solution, 4 µg hβD2, microdilution assay” value was determined as 94%.
